Measurements as given in US20160367497A1, “METHODS AND COMPOSITIONS FOR TREATING NEUROPATHIES” (Washington University, priority 2007, published 2016).

Experiments:
[1] = NMNAT enzymatic assay (NAD production); type: biochemical; conditions: protein from HEK293/HEK293T cells; NAD generated in 1 h
Description: […]
NMNAT protein overexpression, affinity purification and enzymatic assay. […] Relative NMNAT enzymatic activity was measured by using affinity purified proteins as described before and subtracted the value obtained from mock transfected cells and normalized by the amount of recombinant protein determined by densitometry.

[2] = test system: DRG neuronal explant cultures; assay: in vitro Wallerian degeneration assay, DRG explant neurite transection; type: cell-based, mouse; conditions: lentivirus-mediated expression in DRG neurons
Description: To identify the mechanism of delayed axonal degeneration mediated by the Wlds protein, we employed an in-vitro Wallerian degeneration model. Primary DRG explant neurons were infected with lentivirus expressing the appropriate proteins, and axons were injured by either removal of the neuronal cell body (transection) or growth in vincristine (toxic).
Mouse DRG explants from E12.5 embryos were cultured in the presence of 1 nM nerve growth factor. Non-neuronal cells were removed from the cultures by adding 5-fluorouracil to the culture medium. Transection of neurites was performed at 10-20 DIV using an 18-gauge needle to remove the neuronal cell bodies. Incubation with β-nicotinamide adenine dinucleotide (Sigma) or Sirtinol (Calbiochem) was performed using conditions indicated in the text or figures.
Quantitative analysis of axonal degeneration was performed as previously described (Zhai, et al., Neuron 39:217-25, 2003). Briefly, the cultures were examined using phase contrast microscopy at the indicated times. Axons with a fragmented, non-refractile appearance were designated as “degenerated.” At each time point, at least 200 singly distinguishable axons were blindly scored from several randomly taken images of each culture. Each condition was tested in triplicate explants in each experiment. Results were obtained from 2-4 independent experiments for each condition. Statistical analysis was performed by Student's T test. For calculations of neurite-covered area, digitally captured images from quadruplicate samples of two independent experiments were analyzed using analysis 3.1 software (Soft Imaging System, Lakewood, Colo.).
Cell culture, in vitro axotomy, and quantification of axonal degeneration. Mouse DRG explants from E12.5 embryos were cultured in the DMEM containing 10% FCS and 1 nM nerve growth factor. Non-neuronal cells were removed from the cultures by adding 5-fluorouracil to the culture media. Transection of neurites was performed at 14-21 DIV using an 18-gauge needle to remove the neuronal cell bodies. Lentiviral expression vectors were generated. Lentiviral infection was performed 3-7 days prior to axonal transection for 24 hr. Quantitative analysis of neurite degeneration was performed.

## NMNAT3: murine nicotinamide mononucleotide adenylyltransferase3
[1]
  NMNAT enzymatic activity (NAD synthesis): comparable enzymatic activity compared with NMNAT1
[2]
  axonal/neurite degeneration after transection: same extent of delay in neurite degeneration as well as NMNAT1
